The target in the data set is T1, C-PDS5B-His wild type (C-terminal PDS5B, two AT-hooks) (Homo sapiens, UniProt Q9NTI5 1134-1446).
T1 sequence: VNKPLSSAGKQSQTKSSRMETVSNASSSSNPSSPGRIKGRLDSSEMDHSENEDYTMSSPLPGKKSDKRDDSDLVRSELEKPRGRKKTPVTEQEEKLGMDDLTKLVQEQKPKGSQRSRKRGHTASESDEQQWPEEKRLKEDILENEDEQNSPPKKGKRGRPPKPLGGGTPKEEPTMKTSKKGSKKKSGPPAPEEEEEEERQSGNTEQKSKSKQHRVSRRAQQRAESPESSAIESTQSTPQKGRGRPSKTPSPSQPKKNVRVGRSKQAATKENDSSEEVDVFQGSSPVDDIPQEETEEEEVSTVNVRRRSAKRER
The data set is described as follows: EMSA; 5-40 ng protein; EMSA: 20 ng protein (5-40 ng in Fig. 7E) with 2.25 pmol 32P probe, 25 C, 5 min, 6% polyacrylamide gel; protein dialyzed in 50 mM Tris pH 7.5, 0.5 mM EDTA, 100 mM NaCl, 10% glycerol, 1 mM DTT; binding buffer as in cited work. As to conditions: protein: recombinant; tags: N-terminal HA; C-terminal 6xHis; label: 32P; blunt. (In general: Mobility shift assays separate free from complexed probe on a gel.)

This note sets out measurements from publication PMC2672303, “Dosage Effects of Cohesin Regulatory Factor PDS5 on Mammalian Development: Implications for Cohesinopathies”.

B1: T5-8-T5 probe (dsDNA)
DNA 1: GGACTCCAGGTCCAGGACCGCTTTTTGCGCGCGCTTTTTGCGGGAGGTCCAGCTGTCCACCTCC
DNA 2: GGAGGTGGACAGCTGGACCTCCCGCAAAAAGCGCGCGCAAAAAGCGGTCCTGGACCTGGAGTCC
For B1, the binding result is listed as “binds”.
